Results: article PMC13408441, “Molecular regulation and physiological role of GOLPH3-mediated Golgi retention” (Nature Communications, 2026)

Experiments:
[1] = CD thermal denaturation of GOLPH3 proteins; type: physicochemical, human; details: CD at 207 nm, 20 to 95 °C at 1 °C/min, 10 μM protein, 100 mM NaCl, 50 mM Tris pH 7.4, 1 mM TCEP
Experimental: (§1) Supplemental Material for Theodoropoulou, Nasrallah, et al 2026
Isothermal titration calorimetry
Isothermal titration calorimetry (ITC) experiments were performed on a MicroCal PEAQ-ITC (Malvern Panalytical), with GOLPH3 variants being in a buffer containing 250 mM NaCl, 50 mM Tris pH 8.0 and 1 mM TCEP. LCS peptides were synthesised and delivered as lyophilised powder (Genscript). The peptides were dissolved in the protein buffer and their concentrations were calculated based upon their absorbance at 280 nm and their corresponding molar extinction coefficient. Experiments consisted of titrations of a single 0.4 µL injection followed […]
GOLPH3 proteins at a 100 μM concentration. Experiments were performed at 25 °C in triplicate (n = 3), with injection duration of 4 s, injection spacing of 150 s, stir speed of 750 rpm, and reference power of 7 μcal/s. Data were processed and plotted using MicroCal PEAQ‐ITC Analysis Software and fitted to a one‐site binding model.
(§2) Circular Dichroism Spectroscopy
(§3) Circular Dichroism Spectra of GOLPH3 proteins (at 10 μM in 100 mM NaCl, 50 mM Tris pH 7.4 and 1 mM TCEP) were collected with a Chirascan V100 (AppliedPhotophysics), using a 1 mm path length cuvette, at 20 °C, in the 200-260 nm range. Thermal denaturation experiments […]
(§4) every 1 °C, with a temperature ramp speed of 1 °C/min and an equilibration time of […]

[2] = CD secondary structure of GOLPH3 proteins (BestSel fits); type: physicochemical, human; details: 10 μM, 100 mM NaCl, 50 mM Tris pH 7.4, 1 mM TCEP, 20 °C
Experimental: as §1
Isothermal titration calorimetry […]
as §2, §3, §4
Table S2: Fits of CD spectra to fractions of secondary structure for Golph3 WT and various mutants of it, carried out with the BestSel server

[3] = SEC-MALS of GOLPH3 constructs; type: physicochemical, human; details: 12 mg/mL, 250 mM NaCl, 50 mM Tris pH 8.0, 1 mM TCEP
Experimental: Supplemental Material for Theodoropoulou, Nasrallah, et al 2026 buffer. Pooled fractions were concentrated to the required concentration using a MWCO concentrator (Millipore) with a cutoff of 10 kDa.
Size exclusion chromatography coupled to multi-angle light scattering
The molecular weights of the tested constructs were determined by size exclusion chromatography coupled to multi-angle light scattering (SEC-MALS). The mass measurements were performed on a UltiMate3000 HPLC system equipped with a 3 angles miniDAWN TREOS static light scattering detector (Wyatt Technology). The sample volumes of 5−10 μl at a concentration of 12 mg/mL, were applied to a Superdex 200 5/150 GL column (Cytiva) previously equilibrated with 250 mM NaCl, 50 mM Tris pH 8.0, 1 mM TCEP at a flow rate of 0.08 mL/min. The data were analyzed using the ASTRA 6.1 software package (Wyatt technology), using the absorbance at 280 nm and the theoretical extinction coefficient for concentration measurements.
Nuclear Magnetic Resonance (NMR) Spectroscopy
All proteins used for NMR experiments were designed on the GOLPH3-4G background due to its higher stability and solubility. Recombinant proteins were prepared with the isotope enrichment scheme appropriate for each experiment (i.e. 15N-only or 15N, 13C) in 20 mM MES buffer pH 6.5 with 250 mM NaCl and 10% 2H2O. Lower salt, even by 10%, yielded much degraded spectra. […]

[4] = system: PI4KIIIβ; assay: GOLPH3 Golgi localization upon PtdIns(4)P depletion by PIK93; type: cell-based, human; details: 1 h
Experimental: Immunofluorescence and confocal microscopy
HeLa GOLPH3-KO cells transfected with the different GOLPH3 constructs were plated at approximately 50% confluency post-transfection. Cells were washed with PBS, fixed in 4% paraformaldehyde (PFA) for 20 minutes, washed with PBS, quenched with 50 mM NH4Cl for 10 minutes, and washed again with PBS. Cells were permeabilized with 0.05% saponin in PBS for 5 minutes. Subsequently, cells were washed and blocked with 3% BSA and 0.05% saponin in PBS for 30 minutes. Primary antibodies (anti-GOLPH3 and anti-GM130) and secondary antibodies were diluted in the same buffer. After blocking, coverslips were washed and incubated with primary antibodies overnight at 4 °C, washed in PBS, and incubated for 45 minutes with secondary antibodies. Cells were then washed and stained with Hoechst for nuclear visualization. Finally, coverslips were mounted in Prolong Glass Antifade Mountant.
Images were acquired using a Zeiss LSM 980 Inverted microscope with a 63X objective, a pinhole size of 1 AU and at least 2 line-averaging or alternatively using Oympus Evident FV4000. Super-resolution images were taken using Zeiss LSM980 with Airyscan2 module, with 63×oil-immersion objectives. Images were processed using Fiji (ImageJ). Cis-to-trans Golgi linescans were recorded using the “Color Profiler” plugin (Color_Profiler. jar, https://imagej.nih.gov/ij/plugins/color -profiler.html) in Fiji software. […]
Figure S5. GOLPH3 regulation by S-acylation
A. Immunofluorescence analysis of GOLPH3 Golgi localization upon acute PtdIns(4)P depletion.
GOLPH3-KO HeLa cells expressing CERT-GFP (cyan) or GOLPH3 variants (yellow) were treated with increasing concentrations of PIK93 for 1 h. Golgi localization, assessed by colocalization with GM130 (magenta), is highlighted in the insets. Scale bar, 5 µm. […]

[5] = system: GOLPH3; assay: Click-PEG metabolic labeling of GOLPH3 S-acylation; type: cell-based, human; details: HeLa, 4 hours
Experimental: Cells are washed twice with serum-free medium with 1 mg/ml BSA and incubated indicated times with either 100 µM palmitic acid azide or 100uM unlabeled palmitic acid (control). Cells are washed 3 times with cold PBS and lysed in 50 mM Tris-HCl (pH 8.0) and 0.5% SDS. Cell lysates are subjected to click reaction with 5 kDa mPEG-Alkyne, CuSO4, TBTA and ascorbic acid for 1 h at room temperature. Samples are boiled with 4x SDS with BME sample buffer, and analyzed by WB on reducing condition on 4–20% SDS-PAGE gels.

## GOLPH3 WT: recombinant human GOLPH3 (Q9H4A6, residues 52-298)
[1]
  Tm / melting temperature: 52.5 °C
[2]
  % alpha: 41%
  % beta parallel: 0%
  % beta-antiparallel: 7%
  % others: 36%
  % turn: 16%
[3]
  oligomeric state: monomeric

## CC(=O)Nc1nc(C)c(-c2ccc(Cl)c(S(=O)(=O)NCCO)c2)s1 [PIK93]
[4]; CERT-GFP, HeLa
  effect of PIK93 on localization of CERT: completely relocate CERT to the cytosol
[4]; GOLPH3-KO HeLa expressing C84A
  effect of PIK93 on Golgi localization of GOLPH3-C84A: sensitive to PIK93
[4]; GOLPH3-KO HeLa expressing GOLPH3 WT, increasing PIK93 concentrations, versus CERT
  effect of PIK93 on Golgi localization of GOLPH3 WT: significantly more resistant to PtdIns(4)P depletion
[4]; GOLPH3-KO HeLa expressing R90L
  effect of PIK93 on Golgi localization of GOLPH3-R90L: insensitive to PIK93
[4]; GOLPH3-KO HeLa
  effect of PIK93 on Golgi localization of GOLPH3 mutated at Cys108 and Cys122: strongly Golgi-associated, PIK93-insensitive form

## COc1ccc(N2CCN(C(=O)c3cc4c(s3)-c3ccccc3S(=O)(=O)C4)CC2)cc1 [ML349]
[5]; 10 µM
  click-PEG signal upon ML348/ML349: increased the click-PEG signal

## CCCCCCCCCC[C@@H]1C(=O)O[C@H]1CCc1ccc(OC)c(OC)c1 [Palmostatin B]
[5]; 50 µM
  click-PEG signal upon Palmostatin B: increased the click-PEG signal
